32 molecules from US20130109846A1 (published 2013) can be followed below.

In the assay the target is human CD28 (human, UniProt P10747 19-220). The assay can be described thus: cell-based or functional assay.

A value given as a limit tells only on which side of the number the result lay.

B1: 1h-39 (other)
VL: DIQMTQSPSSLSASVGDRVTITCRASQYIGTALHWYQQKPGKAPRLLIYLSSNLQSGVPSRFSGSGSGTDFTLTISSLQPEDFATYYCQQSALNPYTFGQGTKVEIKR
For B1, the “Luciferase assay (EC50)” value is 1300 nM.

B2: 1h-73 (other)
VL: DIQMTQSPSSLSASVGDRVTITCRASQYIGTQLSWYQQKPGKAPKLLIYRGSLLQSGVPSRFSGSGSGTDFTLTISSLQPEDFATYYCQQTALSPYTFGQGTKVEIKR
Turning to B2, the “Luciferase assay (EC50)” value was 4900 nM.

B3: 1h-69 (other)
VL: DIQMTQSPSSLSASVGDRVTITCRASQKIGTGLRWYQQKPGKAPKLLIYRASVLQSGVPSRFSGSGSGTDFTLTISSLQPEDFATYYCQQTAFPPYTFGQGTKVEIKR
Take B3: the “Luciferase assay (EC50)” value is over 7000 nM.

B4: 1h-74 (other)
VL: DIQMTQSPSSLSASVGDRVTITCRASQYIGGALSWYQQKPGKAPKLLIYRASRLQSGVPSRFSGSGSGTDFTLTISSLQPEDFATYYCQQVALVPYTFGQGTKVEIKR
Regarding B4, the “Luciferase assay (EC50)” value was determined as 1300 nM.

B5: 1h-75 (other)
VL: DIQMTQSPSSLSASVGDRVTITCRASQYIGTRLSWYQQKPGKAPKLLIYNASFLQSGVPSRFSGSGSGTDFTLTISSLQPEDFATYYCQQLALSPLTFGQGTKVEIKR
Regarding B5, the “Luciferase assay (EC50)” value worked out at 5700 nM.

B6: 1h-70 (other)
VL: DIQMTQSPSSLSASVGDRVTITCRASQSIGTGLRWYQQKPGKAPMLLIYRASILQSGVPSRFSGGGSGTDFTLTISSLQPEDFATYYCQQTWYRPYTFGQGTKVEIKR
For the molecule B6, the “Luciferase assay (EC50)” value came out at 6600 nM.

B7: 1h-71 (other)
VL: DIQMTQSPSSLSASVGDRVTITCRASRDIGHMLNWYQQKPGKAPKLLIWFGSVLQSGVPSRFSGSGSGTDFTLTISSLQPEDFATYYCVQGRLRPPTFGQGTKVEIKR
With B7, the “Luciferase assay (EC50)” value is 3500 nM.

B8: 1h-79-1 (other)
VL: DIQMTQSPSSLSASVGDRVTITCRASQPIGHSFGWYQQKPGKAPKLLIYWASTLQSGVPTRFSGSGSGTDFTLTISSLQPEDFATYYCQQMLRTPFTFGQGTKVEIKR
As to B8, the “Luciferase assay (EC50)” value was found to be 418000 nM and the “MLR assay (EC50)” value is 2100 nM.

B9: 1h-79-26 (other)
VL: DIQMTQSPSSLSASVGDRVTITCRASQPIGHSLGWYQQKPGKAPKLLIYWASMLQSGVPSRFSGSGSGTDFTLTISSLQPEDFATYYCQQMLRTPFSFGQGTKVEIKR
Consider B9, for which the “Luciferase assay (EC50)” value was found to be 62 nM and the “MLR assay (EC50)” value stood at 38 nM.

B10: 1h-79-31 (other)
VL: DIQMTQSPSSLSASVGDRVTITCRASQPIGHSFGWYQQKPGKAPKLLIYWASMLQSGVPSRFSGSGSGTDFTLTISSLQPEDFATYYCQQMLRTPFMFGQGTKVEIKR
As for B10, the “Luciferase assay (EC50)” value came out at 141 nM and the “MLR assay (EC50)” value stood at 103 nM.

B11: 1h-79-2 (other)
VL: DTQMTQSPSSLSASVGDRVTITCRASRPIGHSLGWYQQKPGKAPKLLIYWASMLQSGVPSRFSGSGSGTDFTLTISSLQPEDFATYYCQQMLRTPFTFGQGTKVEIKR
With B11, the “Luciferase assay (EC50)” value stood at 166 nM.

B12: 1h-79-17 (other)
VL: DIQMTQSPSSLSASVGDRVTITCRASQPIGHSLAWYQQKPGKAPKLLIYWASTLQSGVPSRFSGSGSGTDFTLTISSLQPEDFATYYCQQMLRTPFAFGQGTKVEIKR
B12: the “Luciferase assay (EC50)” value came to 2500 nM.

B13: 1h-79-8 (other)
VL: DIQMTQSPSSLSASVGDRVTITCRASQPIGHSLGWYQQKPGKAPKLLIYWASTLQSGVPSRFSGSGSGTDFTLTISSLQPEDFATYYCQQMLRTPFMFGQGTKVEIKR
On to B13, for which the “Luciferase assay (EC50)” value is 240 nM.

B14: 1h-79-802 (other)
VL: DIQMTQSPSSLSASVGDRVTITCRASTPIGHSLGWYQQKPGKAPKLLIYWASTLQSGVPSRFSGSGSGTDFTLTISSLQPEDFATYYCQQMLRTPFMFGQGTKVEIKR
Turning to B14, the “Luciferase assay (EC50)” value was 421 nM and the “MLR assay (EC50)” value was 48 nM.

B15: 1h-79-29 (other)
VL: DIQMTQSPSSLSASVGDRVTITCRASQPIGHSLGWYQQKPGKAPKLLIYWASMLQSGVPSRFSGSGSGTDFTLTISSLQPEDFATYYCQQMLRTPFAFGQGTKVEIKR
As to B15, the “Luciferase assay (EC50)” value is 43 nM and the “MLR assay (EC50)” value turned out to be 150 nM.

B16: 1h-79-806 (other)
VL: DIQMTQSPSSLSASVGDRVTITCRASQPIGHSLGWYQQKPGKAPKLLIYWASMLQGGVPSRFSGSGSGTDFTLTISSLQPEDFATYYCQQMLRTPFMFGQGTKVEIKR
As for B16, the “Luciferase assay (EC50)” value was found to be 40 nM and the “MLR assay (EC50)” value was found to be 26 nM.

B17: 1h-79-807 (other)
VL: DIQMTQSPSSLSASVGDRVTITCRASQPIGHTLGWYQQKPGKAPKLLIYWASDLIRGVPSRFSGSGSGTDFTLTISSLQPEDFATYYCQQMLRTPFMFGQGTKVEIKR
Consider B17, for which the “Luciferase assay (EC50)” value was found to be 31 nM and the “MLR assay (EC50)” value was found to be 53 nM.

B18: 1h-79-1512 (other)
VL: DIQMTQSPSSLSASVGDRVTITCRASQPIGHSLGWYQQKPGKAPKLLIYWASVLLHGVPSRFSGSGSGTDFTLTISSLQPEDFATYYCQQMLRTPFTFGQGTKVEIKR
In the case of B18, the “Luciferase assay (EC50)” value is 19 nM and the “MLR assay (EC50)” value worked out at 9 nM.

B19: 1h-79-32 (other)
VL: DIQMTQSPSSLSASVGDRVTITCRASQPIGHSFGWYQQKPGKAPKLLIYWASMLQSGVPSRFSGSGSGTDFTLTISSLQPEDFATYYCQQMLRTPFAFGQGTKVEIKR
On to B19, for which the “Luciferase assay (EC50)” value worked out at 68 nM.

B20: 1h-79-809 (other)
VL: DIQMTQSPSSLSASVGDRVTITCRASQAIGHSLGWYQQKPGKAPKLLVYWASTLQSGVPSRFSGSGSGTDFTLTISSLQPEDFATYYCQQMLRTPFMFGQGTKVEIKR
As to B20, the “Luciferase assay (EC50)” value was determined as 592 nM.

B21: 1h-79-1519 (other)
VL: DIQMTQSPSSLSASVGDRVTITCRASQPIGHSLGWYQQKPGKAPKLLIYWASLLLDGVPSRFSGSGSGTDFTLTISSLQPEDFATYYCQQMLRTPFTFGQGTKVEIKR
With B21, the “Luciferase assay (EC50)” value was 97 nM and the “MLR assay (EC50)” value is 37 nM.

B22: 1h-79-28 (other)
VL: DIQMTQSPSSLSASVGDRVTITCRASQPIGHSLGWYQQKPGKAPKLLIYWASMLQSGVPSRFSGSGSGTDFTLTISSLQPEDFATYYCQQMLRTPFMFGQGTKVEIKR
On to B22, for which the “Luciferase assay (EC50)” value was 40 nM and the “MLR assay (EC50)” value is 109 nM.

B23: 1h-79-30 (other)
VL: DIQMTQSPSSLSASVGDRVTITCRASQPIGHSFGWYQQKPGKAPKLLIYWASMLQSGVPSRFSGSGSGTDFTLTISSLQPEDFATYYCQQMLRTPFSFGQGTKVEIKR
Turning to B23, the “Luciferase assay (EC50)” value was found to be 224 nM and the “MLR assay (EC50)” value turned out to be 126 nM.

B24: 1h-79-15 (other)
VL: DIQMTQSPSSLSASVGDRVTITCRASQPIGHSLGWYQQKPGKAPKLLIYWASTLQSGVPSRFSGSGSGTDFTITISSLQPEDFATYYCQQMLRTPFTFGQGTKVEIKR
Consider B24, for which the “Luciferase assay (EC50)” value stood at 40 nM and the “MLR assay (EC50)” value was determined as 268 nM.

B25: 1h-79-808 (other)
VL: DIQMTQSPSSLSASVGDRVTITCRASQPIGHALGWYQQKPGKAPRLLIYWASTLQSGVPSRFSGSGSGTDFTLTISSLQPEDFATYYCQQMLRTPFMFGQGTKVEIKR
As to B25, the “Luciferase assay (EC50)” value was determined as 560 nM.

B26: 1h-79-1505 (other)
VL: DIQMTQSPSSLSASVGDRVTITCRASQPIGHSLGWYQQKPGKAPKLLIYWGSWLQSGVPSRFSGSGSGTDFTLTISSLQPEDFATYYCQQMLRTPFTFGQGTKVEIKR
For B26, the “Luciferase assay (EC50)” value is 103 nM.

B27: 1h-79-21 (other)
VL: DIQMTQSPSSLSASVGDRVTITCRASQPIGHSFAWYQQKPGKAPKLLIYWASTLQSGVPSRFSGSGSGTDFTLTISSLQPEDFATYYCQQMLRTPFTFGQGTKVEIKR
Regarding B27, the “Luciferase assay (EC50)” value was 3000 nM.

B28: 1h-79-1520 (other)
VL: DIQMTQSPSSLSASVGDRVAITCRASQPIGHSLGWYEQKPGKAPKLLIYWSSVLISGVPSRFSGSGSGTDFTLTISSLQPEDFATYYCQQMLRTPFTFGQGTKVEIKR
Turning to B28, the “Luciferase assay (EC50)” value is 113 nM and the “MLR assay (EC50)” value was 68 nM.

B29: 1h-79-24 (other)
VL: DIQMTQSPSSLSASVGDRVTITCRASQPIGHSLGWYQQKPGKAPKLLIYWASTLQSGVPSRFSGSGSGTDFTLTISSLQPEDFATYYCQQMLRTPFAFGQGTKVEIKR
In the case of B29, the “Luciferase assay (EC50)” value was determined as 331 nM and the “MLR assay (EC50)” value turned out to be 295 nM.

B30: 1h-79-20 (other)
VL: DIQMTQSPSSLSASVGDRVTVTCRASQPIGHSLAWYQQKPGKAPKLLIYWASMLQSGVPSRFSGSGSGTDFTLTISSLQPEDFATYYCQQMLRTPFTFGQGTKVEIKR
On to B30, for which the “Luciferase assay (EC50)” value was 1800 nM.

B31: 1h-79-22 (other)
VL: DIQMTQSPSSLSASVGDRVTITCRASQPIGHSLAWYQQKPGKAPKLLIYWASMLQSGVPSRFSGSGSGTDFTLTISSLQPEDFATYYCQQMLRTPFSFGQGTKVEIKR
For the molecule B31, the “Luciferase assay (EC50)” value was determined as 750 nM.

B32: 1h-72 (other)
VL: DIQMTQSPSSLSASVGDRVTITCRASRSINHWLDWYQQKPGKAPTLLISGVSWLQSGVPSRFSGSGSGTDFTLTISSLQPEDFATYYCCQPGFRPCTFGQGTKVEIKR
On to B32, for which the “Luciferase assay (EC50)” value was determined as 3400 nM.
